Experimental data taken from patent US20090276160A1.

Assays:
Assay in all cases: cell-based or functional assay
[1] = target: Activated Protein C (Haematologic Technologies) (human) (UniProt P04070)
[2] = target: Hepsin (residues 45-417) (human) (UniProt P05981)
[3] = target: Bovine trypsin (Worthington) (bovine) (UniProt P00760)
[4] = target: Plasmin (Haematologic Technologies) (human) (UniProt P00747)
[5] = target: Tissue factor/factor VIIa complex: human tissue factor (residues 1-219) with human recombinant FVIIa (human) (UniProt P13726)
Sequence of Tissue factor/factor VIIa complex: human tissue factor (residues 1-219) with human recombinant FVIIa (human) (P13726 33-251 limits assumed, chain 1 of 2): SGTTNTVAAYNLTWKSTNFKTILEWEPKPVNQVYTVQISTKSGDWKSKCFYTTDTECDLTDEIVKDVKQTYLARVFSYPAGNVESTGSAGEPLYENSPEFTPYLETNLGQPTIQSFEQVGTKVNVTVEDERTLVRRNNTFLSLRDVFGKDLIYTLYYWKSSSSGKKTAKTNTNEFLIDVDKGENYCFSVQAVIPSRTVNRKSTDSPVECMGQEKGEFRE
Sequence of Tissue factor/factor VIIa complex: human tissue factor (residues 1-219) with human recombinant FVIIa (human) (P08709 61-466 limits assumed, chain 2 of 2, further chain): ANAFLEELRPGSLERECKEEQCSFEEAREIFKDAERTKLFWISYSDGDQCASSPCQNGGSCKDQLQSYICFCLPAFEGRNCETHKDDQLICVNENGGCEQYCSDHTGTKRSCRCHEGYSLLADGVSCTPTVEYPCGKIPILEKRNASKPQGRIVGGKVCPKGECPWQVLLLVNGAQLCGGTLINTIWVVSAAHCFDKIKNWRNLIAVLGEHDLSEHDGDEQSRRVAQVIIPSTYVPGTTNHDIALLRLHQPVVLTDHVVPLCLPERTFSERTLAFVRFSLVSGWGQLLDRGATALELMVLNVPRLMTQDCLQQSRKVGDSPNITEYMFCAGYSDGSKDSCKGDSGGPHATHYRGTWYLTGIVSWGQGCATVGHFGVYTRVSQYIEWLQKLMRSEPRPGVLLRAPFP

[6] = target: Factor XIIa (American Diagnostica) (human) (UniProt P00748)
Sequence of Factor XIIa (American Diagnostica) (human) (P00748 20-615 limits assumed): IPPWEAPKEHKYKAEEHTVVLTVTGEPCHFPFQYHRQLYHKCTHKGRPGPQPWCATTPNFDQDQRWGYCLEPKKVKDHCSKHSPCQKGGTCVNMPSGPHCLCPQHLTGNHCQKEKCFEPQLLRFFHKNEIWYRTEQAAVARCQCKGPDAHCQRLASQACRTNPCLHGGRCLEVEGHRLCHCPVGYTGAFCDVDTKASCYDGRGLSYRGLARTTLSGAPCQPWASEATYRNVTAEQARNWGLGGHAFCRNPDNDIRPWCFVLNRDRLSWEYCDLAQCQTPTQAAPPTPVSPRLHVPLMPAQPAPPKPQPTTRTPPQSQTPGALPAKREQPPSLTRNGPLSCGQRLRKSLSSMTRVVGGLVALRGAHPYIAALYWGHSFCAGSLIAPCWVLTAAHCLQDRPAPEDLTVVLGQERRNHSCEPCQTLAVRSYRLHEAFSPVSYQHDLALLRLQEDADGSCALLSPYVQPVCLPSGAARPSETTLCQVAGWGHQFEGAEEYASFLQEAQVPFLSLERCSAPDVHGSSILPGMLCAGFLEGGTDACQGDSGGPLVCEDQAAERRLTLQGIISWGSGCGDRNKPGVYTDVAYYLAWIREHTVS

[7] = target: Chymotrypsin (Sigma) (human) (UniProt P17538)
[8] = target: tPA (Activase, Genentech) (human) (UniProt P00750)
[9] = target: T1, Matriptase (residues 615-855) (human) (UniProt Q9Y5Y6)
T1 sequence (looked up): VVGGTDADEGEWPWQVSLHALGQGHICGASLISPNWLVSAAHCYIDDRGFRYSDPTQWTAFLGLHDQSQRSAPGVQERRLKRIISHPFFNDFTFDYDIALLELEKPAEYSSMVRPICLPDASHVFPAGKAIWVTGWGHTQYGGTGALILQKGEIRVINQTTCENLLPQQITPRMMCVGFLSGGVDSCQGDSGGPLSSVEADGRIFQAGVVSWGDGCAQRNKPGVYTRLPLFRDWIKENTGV

[10] = target: uPA (Chemicon) (human) (UniProt P00749)
[11] = target: Hepatocyte growth factor activator (HGFA), activated 34 kDa short form, residues Val373 to Ser655 with a C-terminal poly-histidine tag (human) (UniProt Q04756)
Sequence of Hepatocyte growth factor activator (HGFA), activated 34 kDa short form, residues Val373 to Ser655 with a C-terminal poly-histidine tag (human) (Q04756 373-407, chain 1 of 2): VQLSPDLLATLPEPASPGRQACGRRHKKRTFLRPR
Sequence of Hepatocyte growth factor activator (HGFA), activated 34 kDa short form, residues Val373 to Ser655 with a C-terminal poly-histidine tag (human) (Q04756 408-655, chain 2 of 2): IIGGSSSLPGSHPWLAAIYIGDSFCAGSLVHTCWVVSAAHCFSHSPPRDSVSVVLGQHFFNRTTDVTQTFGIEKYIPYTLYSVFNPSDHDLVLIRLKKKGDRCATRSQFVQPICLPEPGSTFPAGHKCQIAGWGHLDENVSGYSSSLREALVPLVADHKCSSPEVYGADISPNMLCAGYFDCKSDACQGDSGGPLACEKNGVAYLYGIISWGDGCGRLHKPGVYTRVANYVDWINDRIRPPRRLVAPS

[12] = target: Factor Xa (Haematologic Technologies) (human) (UniProt P00742)
Sequence of Factor Xa (Haematologic Technologies) (human) (P00742 41-179 limits assumed, chain 1 of 2): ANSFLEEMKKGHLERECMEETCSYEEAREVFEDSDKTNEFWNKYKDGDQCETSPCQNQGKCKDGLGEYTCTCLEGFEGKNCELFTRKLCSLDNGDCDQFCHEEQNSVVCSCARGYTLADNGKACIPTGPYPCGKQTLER
Sequence of Factor Xa (Haematologic Technologies) (human) (P00742 235-488 limits assumed, chain 2 of 2): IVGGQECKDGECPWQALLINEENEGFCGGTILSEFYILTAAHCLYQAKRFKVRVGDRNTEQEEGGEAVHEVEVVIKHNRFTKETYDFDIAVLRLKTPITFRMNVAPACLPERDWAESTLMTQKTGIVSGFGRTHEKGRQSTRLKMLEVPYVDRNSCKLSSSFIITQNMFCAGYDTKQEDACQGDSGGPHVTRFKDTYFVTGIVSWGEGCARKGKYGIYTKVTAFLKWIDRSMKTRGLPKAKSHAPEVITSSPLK

[13] = target: T2, Complement factor C1s (Calbiochem) (human) (UniProt P09871)
T2 sequence (looked up): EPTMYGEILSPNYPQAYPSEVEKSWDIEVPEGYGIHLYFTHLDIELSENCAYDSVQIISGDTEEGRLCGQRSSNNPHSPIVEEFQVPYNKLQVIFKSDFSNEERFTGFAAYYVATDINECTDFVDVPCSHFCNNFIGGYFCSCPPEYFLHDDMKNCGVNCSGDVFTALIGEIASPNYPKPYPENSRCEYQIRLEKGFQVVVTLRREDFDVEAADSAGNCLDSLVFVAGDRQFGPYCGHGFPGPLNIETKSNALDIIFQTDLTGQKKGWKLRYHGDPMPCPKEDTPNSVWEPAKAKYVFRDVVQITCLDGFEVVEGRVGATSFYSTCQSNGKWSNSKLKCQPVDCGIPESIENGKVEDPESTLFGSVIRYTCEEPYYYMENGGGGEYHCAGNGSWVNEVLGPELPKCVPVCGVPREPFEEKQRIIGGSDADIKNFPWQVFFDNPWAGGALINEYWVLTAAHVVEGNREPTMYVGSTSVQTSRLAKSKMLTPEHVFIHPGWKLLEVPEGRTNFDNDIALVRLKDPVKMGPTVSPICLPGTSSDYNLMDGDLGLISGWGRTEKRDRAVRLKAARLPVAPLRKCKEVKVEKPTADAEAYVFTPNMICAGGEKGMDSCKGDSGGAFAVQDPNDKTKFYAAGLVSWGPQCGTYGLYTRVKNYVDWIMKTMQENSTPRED

[14] = target: Plasma kallikrein (American Diagnostica) (human) (UniProt P03952)
Sequence of Plasma kallikrein (American Diagnostica) (human) (P03952 20-638 limits assumed): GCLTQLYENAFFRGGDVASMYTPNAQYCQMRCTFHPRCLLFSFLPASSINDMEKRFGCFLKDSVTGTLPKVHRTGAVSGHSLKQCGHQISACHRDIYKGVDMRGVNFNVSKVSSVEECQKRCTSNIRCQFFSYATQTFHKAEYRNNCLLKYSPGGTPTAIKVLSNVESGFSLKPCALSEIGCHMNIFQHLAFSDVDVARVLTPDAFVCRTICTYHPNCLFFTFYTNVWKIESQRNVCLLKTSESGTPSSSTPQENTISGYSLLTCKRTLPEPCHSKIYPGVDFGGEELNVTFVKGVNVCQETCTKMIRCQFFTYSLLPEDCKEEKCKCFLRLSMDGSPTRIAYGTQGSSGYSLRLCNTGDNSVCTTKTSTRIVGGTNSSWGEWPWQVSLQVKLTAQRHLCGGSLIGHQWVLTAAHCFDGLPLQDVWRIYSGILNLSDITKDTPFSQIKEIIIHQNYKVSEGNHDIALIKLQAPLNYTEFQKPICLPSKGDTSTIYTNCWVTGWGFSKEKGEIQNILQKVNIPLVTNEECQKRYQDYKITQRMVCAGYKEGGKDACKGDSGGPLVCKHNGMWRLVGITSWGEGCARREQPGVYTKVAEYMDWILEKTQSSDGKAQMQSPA

[15] = target: Factor XIa (Haematologic Technologies) (human) (UniProt P03951)
[16] = target: Thrombin (Haematologic Technologies) (human) (UniProt P00734)

Sequence of sHAI-1B, soluble HAI-1B ectodomain (O43278 36-465 limits assumed): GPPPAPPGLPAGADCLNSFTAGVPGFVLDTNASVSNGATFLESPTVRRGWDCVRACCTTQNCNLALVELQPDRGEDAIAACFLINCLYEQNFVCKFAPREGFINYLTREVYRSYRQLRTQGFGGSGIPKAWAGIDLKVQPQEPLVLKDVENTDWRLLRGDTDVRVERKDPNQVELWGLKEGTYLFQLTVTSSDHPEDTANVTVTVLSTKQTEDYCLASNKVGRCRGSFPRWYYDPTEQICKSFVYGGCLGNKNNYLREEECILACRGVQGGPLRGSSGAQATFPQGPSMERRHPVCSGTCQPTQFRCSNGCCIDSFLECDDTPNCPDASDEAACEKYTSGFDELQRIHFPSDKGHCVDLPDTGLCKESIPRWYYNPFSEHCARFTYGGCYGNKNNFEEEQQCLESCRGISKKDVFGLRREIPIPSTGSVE
Sequence of Plasmin (Haematologic Technologies) (human) (P00747 97-810 limits assumed): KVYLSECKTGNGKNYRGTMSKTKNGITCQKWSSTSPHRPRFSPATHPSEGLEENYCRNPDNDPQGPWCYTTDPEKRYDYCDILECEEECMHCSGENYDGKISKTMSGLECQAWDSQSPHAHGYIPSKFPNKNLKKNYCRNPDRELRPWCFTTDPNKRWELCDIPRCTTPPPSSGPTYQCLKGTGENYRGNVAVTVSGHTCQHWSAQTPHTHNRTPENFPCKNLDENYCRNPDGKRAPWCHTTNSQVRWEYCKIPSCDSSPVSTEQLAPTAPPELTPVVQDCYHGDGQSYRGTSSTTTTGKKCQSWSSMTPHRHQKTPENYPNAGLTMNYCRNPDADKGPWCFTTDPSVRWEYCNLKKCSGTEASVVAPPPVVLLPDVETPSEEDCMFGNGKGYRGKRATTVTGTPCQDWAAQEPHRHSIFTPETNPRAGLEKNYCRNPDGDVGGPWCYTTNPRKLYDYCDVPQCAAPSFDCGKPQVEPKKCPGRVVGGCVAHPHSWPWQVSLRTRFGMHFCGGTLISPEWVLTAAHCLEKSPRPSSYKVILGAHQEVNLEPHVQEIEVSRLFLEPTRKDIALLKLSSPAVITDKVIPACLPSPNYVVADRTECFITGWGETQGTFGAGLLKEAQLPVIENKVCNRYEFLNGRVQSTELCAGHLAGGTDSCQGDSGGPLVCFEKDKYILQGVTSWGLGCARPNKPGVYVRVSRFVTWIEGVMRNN
Sequence of Hepsin (residues 45-417) (human) (P05981 45-417 limits assumed): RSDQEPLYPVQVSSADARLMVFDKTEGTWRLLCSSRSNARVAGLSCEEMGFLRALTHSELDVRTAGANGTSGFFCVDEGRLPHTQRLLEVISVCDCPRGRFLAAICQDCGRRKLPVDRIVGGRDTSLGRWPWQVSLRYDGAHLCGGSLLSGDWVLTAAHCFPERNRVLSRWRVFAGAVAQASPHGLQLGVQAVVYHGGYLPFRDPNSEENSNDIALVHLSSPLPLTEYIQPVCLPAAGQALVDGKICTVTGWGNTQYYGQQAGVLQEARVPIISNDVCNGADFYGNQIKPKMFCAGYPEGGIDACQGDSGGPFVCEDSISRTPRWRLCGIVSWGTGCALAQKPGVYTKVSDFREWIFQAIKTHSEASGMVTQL
Sequence of Bovine trypsin (Worthington) (bovine) (P00760 24-246): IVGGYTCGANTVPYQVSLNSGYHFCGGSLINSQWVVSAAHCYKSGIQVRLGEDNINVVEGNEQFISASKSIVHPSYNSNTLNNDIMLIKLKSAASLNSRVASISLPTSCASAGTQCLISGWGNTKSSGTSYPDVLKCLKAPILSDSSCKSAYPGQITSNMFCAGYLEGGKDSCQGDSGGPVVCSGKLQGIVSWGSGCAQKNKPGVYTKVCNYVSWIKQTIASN
Sequence of Activated Protein C (Haematologic Technologies) (human) (P04070 43-197, form in doubt, chain 1 of 2): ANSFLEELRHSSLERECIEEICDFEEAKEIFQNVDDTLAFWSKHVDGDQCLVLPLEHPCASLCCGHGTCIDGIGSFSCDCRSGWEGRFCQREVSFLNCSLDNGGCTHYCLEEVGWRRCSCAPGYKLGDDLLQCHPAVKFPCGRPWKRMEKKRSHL
Sequence of Activated Protein C (Haematologic Technologies) (human) (P04070 212-461, form in doubt, chain 2 of 2): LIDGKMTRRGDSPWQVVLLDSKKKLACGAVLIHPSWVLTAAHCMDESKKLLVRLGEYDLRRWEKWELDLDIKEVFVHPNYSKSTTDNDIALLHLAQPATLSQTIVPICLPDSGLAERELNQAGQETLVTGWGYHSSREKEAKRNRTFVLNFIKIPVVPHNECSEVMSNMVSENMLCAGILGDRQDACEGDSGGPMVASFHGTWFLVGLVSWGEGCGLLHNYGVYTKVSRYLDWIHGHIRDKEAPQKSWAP

Substance: sHAI-1B, soluble HAI-1B ectodomain (from UniProt O43278 36-465)
- IC50 (nM), inhibition of enzyme activity on chromogenic substrate [1]: > 2000 nM
- IC50 (nM), inhibition of enzyme activity on chromogenic substrate [2]: 21.1 nM
- IC50 (sHAI-1B)/IC50 (KD1) [2]: 3
- IC50 (nM), inhibition of enzyme activity on chromogenic substrate [3]: 2.4 nM
- IC50 (sHAI-1B)/IC50 (KD1) [3]: 3
- IC50 (nM), inhibition of enzyme activity on chromogenic substrate [4]: 399 nM
- IC50 (sHAI-1B)/IC50 (KD1) [4]: 3
- IC50 (nM), inhibition of enzyme activity on chromogenic substrate [5]: > 2000 nM
- IC50 (nM), inhibition of enzyme activity on chromogenic substrate [6]: > 2000 nM
- IC50 (nM), inhibition of enzyme activity on chromogenic substrate [7]: > 2000 nM
- IC50 (nM), inhibition of enzyme activity on chromogenic substrate [8]: > 2000 nM
- IC50 (nM), inhibition of enzyme activity on chromogenic substrate [9]: 16.5 nM
- IC50 (sHAI-1B)/IC50 (KD1) [9]: 10
- IC50 (nM), inhibition of enzyme activity on chromogenic substrate [10]: > 2000 nM
- IC50 (nM), inhibition of enzyme activity on chromogenic substrate [11]: 30.5 nM
- IC50 (sHAI-1B)/IC50 (KD1) [11]: 8
- IC50 (nM), inhibition of enzyme activity on chromogenic substrate [12]: > 2000 nM
- IC50 (nM), inhibition of enzyme activity on chromogenic substrate [13]: > 2000 nM
- IC50 (nM), inhibition of enzyme activity on chromogenic substrate [14]: 686 nM
- IC50 (sHAI-1B)/IC50 (KD1) [14]: 33
- IC50 (nM), inhibition of enzyme activity on chromogenic substrate [15]: > 2000 nM
- IC50 (nM), inhibition of enzyme activity on chromogenic substrate [16]: > 2000 nM
